# Test results as given in patent US20110306057A1.
# Target: PP2A regulatory subunit B56δ (human (endogenous in human HEK TER cells)) (UniProt Q14738)
# Assay: anti-FLAG co-IP from HEK TER cells, immunoblot, densitometry; +++ >90%, ++ 50-90%, + <50%
# Sequence of PP2A regulatory subunit B56δ (human (endogenous in human HEK TER cells)) (Q14738 whole entry, stated change not applied): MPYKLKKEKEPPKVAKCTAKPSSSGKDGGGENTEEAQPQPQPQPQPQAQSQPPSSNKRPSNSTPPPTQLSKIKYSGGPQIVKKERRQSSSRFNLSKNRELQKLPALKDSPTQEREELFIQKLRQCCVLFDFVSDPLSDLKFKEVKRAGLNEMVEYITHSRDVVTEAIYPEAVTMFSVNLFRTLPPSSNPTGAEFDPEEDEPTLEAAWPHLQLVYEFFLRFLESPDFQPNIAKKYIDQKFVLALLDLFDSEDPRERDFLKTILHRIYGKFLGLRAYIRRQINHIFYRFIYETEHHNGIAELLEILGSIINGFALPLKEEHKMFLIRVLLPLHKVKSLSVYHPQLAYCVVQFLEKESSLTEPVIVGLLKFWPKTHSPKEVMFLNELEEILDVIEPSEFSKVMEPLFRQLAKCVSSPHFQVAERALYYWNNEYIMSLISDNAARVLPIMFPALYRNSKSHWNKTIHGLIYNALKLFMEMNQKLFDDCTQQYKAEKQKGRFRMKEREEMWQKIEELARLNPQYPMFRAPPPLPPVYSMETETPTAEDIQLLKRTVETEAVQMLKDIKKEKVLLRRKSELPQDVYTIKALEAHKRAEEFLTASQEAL
# Sequence of cancer-derived FLAG-tagged PP2A Aβ mutant G8R (P30154 other isoform, or with tags, fused parts or gaps limits assumed, stated change not applied): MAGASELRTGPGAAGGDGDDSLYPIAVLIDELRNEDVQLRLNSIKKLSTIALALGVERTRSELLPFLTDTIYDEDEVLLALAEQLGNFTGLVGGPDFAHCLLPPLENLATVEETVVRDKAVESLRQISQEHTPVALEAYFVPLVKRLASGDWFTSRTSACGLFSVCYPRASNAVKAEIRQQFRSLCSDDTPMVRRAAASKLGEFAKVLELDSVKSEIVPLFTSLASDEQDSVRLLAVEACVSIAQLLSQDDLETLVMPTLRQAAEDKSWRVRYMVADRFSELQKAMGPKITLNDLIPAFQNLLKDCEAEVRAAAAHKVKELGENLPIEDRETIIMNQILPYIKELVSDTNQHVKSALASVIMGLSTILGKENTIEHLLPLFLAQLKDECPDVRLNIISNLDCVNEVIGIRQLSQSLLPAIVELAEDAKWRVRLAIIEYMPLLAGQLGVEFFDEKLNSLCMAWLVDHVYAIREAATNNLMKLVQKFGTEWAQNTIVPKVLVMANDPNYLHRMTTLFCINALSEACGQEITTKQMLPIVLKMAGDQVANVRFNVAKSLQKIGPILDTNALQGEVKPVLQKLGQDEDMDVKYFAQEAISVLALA
# Sequence of wild type (WT) FLAG epitope-tagged version of PP2A Aβ (P30154 whole entry): as the sequence (P30154 other isoform, or with tags, fused parts or gaps limits assumed, stated change not applied) above, with R8G counted along it
row,Substance,"binding level (percent, co-immunoprecipitation densitometry)"
1,cancer-derived FLAG-tagged PP2A Aβ mutant D504G (from UniProt P30154 1-601),> 90%
2,cancer-derived FLAG-tagged PP2A Aβ mutant G8R (from UniProt P30154 1-601),< 50%
3,cancer-derived FLAG-tagged PP2A Aβ mutant K343E (from UniProt P30154 1-601),50 to 90%
4,cancer-derived FLAG-tagged PP2A Aβ mutant P65S (from UniProt P30154 1-601),50 to 90%
5,wild type (WT) FLAG epitope-tagged version of PP2A Aβ (from UniProt P30154 1-601),> 90%

# Target: endogenous RalA (human) (UniProt P11233)
# Sequence (P11233 1-203 limits assumed): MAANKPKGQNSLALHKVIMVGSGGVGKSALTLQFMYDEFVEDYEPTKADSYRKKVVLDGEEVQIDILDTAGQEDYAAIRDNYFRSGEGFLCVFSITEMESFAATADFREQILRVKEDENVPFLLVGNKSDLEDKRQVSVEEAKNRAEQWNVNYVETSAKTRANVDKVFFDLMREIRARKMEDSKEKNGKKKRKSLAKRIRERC
# Assay: cell-based or functional assay
row,Substance,"GTP-bound RalA levels (RalA activation assay, RalBP1 agarose pull-down)"
1,endogenous PP2A Aβ (from UniProt P30154 2-601),4.5 fold
